# Source: patent US20110008829
# T1: HMGS with 12 SH3 peptide ligands recombined to the C-terminus, P54839
# T1 sequence (P54839 whole entry, looked up): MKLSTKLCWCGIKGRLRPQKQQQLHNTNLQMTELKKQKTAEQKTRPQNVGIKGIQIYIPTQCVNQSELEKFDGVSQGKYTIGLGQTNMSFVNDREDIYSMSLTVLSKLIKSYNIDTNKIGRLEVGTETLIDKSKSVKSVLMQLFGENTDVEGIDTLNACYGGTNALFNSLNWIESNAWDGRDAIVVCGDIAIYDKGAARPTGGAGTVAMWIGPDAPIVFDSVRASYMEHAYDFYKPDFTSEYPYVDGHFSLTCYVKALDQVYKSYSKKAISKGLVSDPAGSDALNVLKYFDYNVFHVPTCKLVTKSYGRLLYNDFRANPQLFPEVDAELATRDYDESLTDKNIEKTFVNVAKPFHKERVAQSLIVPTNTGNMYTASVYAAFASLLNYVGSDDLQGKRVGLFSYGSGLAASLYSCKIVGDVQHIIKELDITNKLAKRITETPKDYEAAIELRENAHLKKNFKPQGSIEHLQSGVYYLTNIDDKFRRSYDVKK
# T2: HMGS with 6 SH3 peptide ligands recombined to the C-terminus, P54839
# T2 sequence (P54839 whole entry, looked up): T1 sequence (P54839 whole entry, looked up)
# B1: HMGR with an N-terminal SH3 domain (protein)
# chain: AEYVRALFDFNGNDEEDLPFKKGDILRIRDKPEEQWWNAEDSEGKRGMIPVPYVEKYRVLTNKTVISGSKVKSLSSAQSSSSGPSSSSEEDDSRDIESLDKKIRPLEELEALLSSGNTKQLKNKEVAALVIHGKLPLYALEKKLGDTTRAVAVRRKALSILAEAPVLASDRLPYKNYDYDRVFGACCENVIGYMPLPVGVIGPLVIDGTSYHIPMATTEGCLVASAMRGCKAINAGGGATTVLTKDGMTRGPVVRFPTLKRSGACKIWLDSEEGQNAIKKAFNSTSRFARLQHIQTCLAGDLLFMRFRTTTGDAMGMNMISKGVEYSLKQMVEEYGWEDMEVVSVSGNYCTDKKPAAINWIEGRGKSVVAEATIPGDVVRKVLKSDVSALVELNIAKNLVGSAMAGSVGGFNAHAANLVTAVFLALGQDPAQNVESSNCITLMKEVDGDLRISVSMPSIEVGTIGGGTVLEPQGAMLDLLGVRGPHATAPGTNARQLARIVACAVLAGELSLCAALAAGHLVQSHMTHNRKPAEPTKPNNLDATDINRLKDGSVTCIKS
# Assays:
# [1] = biological target: T1, HMGS with 12 SH3 peptide ligands …
# [2] = biological target: T2, HMGS with 6 SH3 peptide ligands …
protein,measurement,setting,value
B1,"mevalonate production in E. coli, improvement",[1],reduced somewhat (to 7-fold) when the number of possible interactions was further increased
same,"mevalonate production in E. coli, improvement",[2],mevalonate production reached a maximum ˜10-fold improvement with 6 possible interactions
